Experiment in all cases: SPR
(In general: In SPR one partner is held on a chip, and binding of the other changes the refractive index at the surface.)

The target of assay [1] is papain-digested Fc fragment of commercially available rituximab (human, N-glycosylated).
Assay [2] addresses IgG1-Fc fragment produced by Expi293 cells (human, N-glycosylated).
For assay [3], the target named is maltose-binding protein-linked IgG1-Fc fragment ( | human, N-glycosylated Fc).

B1: mutant human FcγRIIIa (V158) ectodomain (amino acid residues 1–175) with nine amino acid mutations a (receptor)
chain: RTEDLPKAEVILEPQWNRVLEKDSVTLKCRGAYSPEDNSTQWFHNESLISSQASSYLIDAATVDDSGEYRCQTSLSTLSDPVQLEVHIGWLLLQAPRWEFKEGDPIHLRCHSWKNTALHKVTYLQNGKGRKYFHHNSDFYIPKATLKDSGSYSCRGLVGSKNVSSETVNITITQG
As for B1, in assay [1], the affinity, expressed as Kd, was 1660 nM; the koff (in general, a measure of how fast the partners let go of each other) was 0.0721 s⁻¹; the on-rate constant (kon) (in general, the second-order rate constant of association) came out at 43900 M⁻¹ s⁻¹. Further, in assay [2], the Kd – broadly, the constant that tells how readily two partners part at equilibrium – was 1680 nM; the koff was 0.0802 s⁻¹; the kon was determined as 47800 M⁻¹ s⁻¹. In assay [3], this molecule displayed a Kd of 3470 nM, a koff of 0.0635 s⁻¹ and a kon of 18400 M⁻¹ s⁻¹.

Values taken from publication PMC9850916 (Biochemistry, 2022).
